The source of these data is paper doi:10.64898/2025.12.02.691773.

The assay concerns the target DH-CRBN (human) (UniProt Q96SW2). In words: split reporter. Details: unit not given beside the values.

Turning to “CHD8 full domain (FD) (from UniProt Q9HCK8 1-2581) (domain or fragment)”, the AUC of the growth curve with pomalidomide was found to be 5130 and the AUC of the growth curve without compound (DMSO) is 3220.

Turning to “SPART FD (from UniProt Q8N0X7 1-666) (domain or fragment)”, the AUC of the growth curve with pomalidomide stood at 2800 and the AUC of the growth curve without compound (DMSO) came to 1780.
